Assay results: publication PMC4733052, “Heart of glass anchors Rasip1 at endothelial cell-cell junctions to support vascular integrity” (eLife, 2016)

B1: recombinant Rasip1 RA domain (residues 134-285) (domain or fragment, human, UniProt Q5U651 134-285, looked up)
chain: EPPLATRATAPPGVLKIFGAGLASGANYKSVLATARSTARELVAEALERYGLAGSPGGGPGESSCVDAFALCDALGRPAAAGVGSGEWRAEHLRVLGDSERPLLVQELWRARPGWARRFELRGREEARRLEQEAFGAADSEGTGAPSWRPQK
notes: Rasip1, human, Ras-association (RA) domain residues 134-285; Cloned into pETM-11; also called Rasip1 RA domain wild-type; Rasip1 wild-type
B3: human Rap1 isoform Rap1B (residues 1–167), GMP-PNP-bound (natural protein, UniProt P61224 1-167, looked up)
chain: MREYKLVVLGSGGVGKSALTVQFVQGIFVEKYDPTIEDSYRKQVEVDAQQCMLEILDTAGTEQFTAMRDLYMKNGQGFALVYSITAQSTFNDLQDLREQILRVKDTDDVPMILVGNKCDLEDERVVGKEQGQNLARQWNNCAFLESSAKSKINVNEIFYDLVRQINR
notes: Rap1B, human, residues 1-167; Loaded with GMP-PNP; expression and purification as in Gingras et al., 2013; source: Escherichia coli strain CK600K (pTAC vector), purified, nucleotide exchanged for GMP-PNP

Experiments:
[1] = target: B3; assay: ITC; VP-ITC at 25°C; 335 μM GMP-PNP-bound Rap1B from the syringe into 30 μM Rasip1 RA domain (monomer concentration) in the cell; 20 mM Sodium Phosphate, 200 mM NaCl, 3 mM MgCl2, pH 6.5, 0.1 mM GMP-PNP; single-site fit; details: both partners purified
[2] = target: the molecule itself; assay: SEC; Rasip1 RA domain alone (50 μM) on Superdex-75 (10/300); apparent mass against calculated monomer mass 16.3 kDa
[3] = target: B1; assay: ITC; VP-ITC at 25°C; 335 μM GMP-PNP-bound Rap1B from the syringe into 30 μM Rasip1 RA domain (monomer concentration) in the cell; 20 mM Sodium Phosphate, 200 mM NaCl, 3 mM MgCl2, pH 6.5, 0.1 mM GMP-PNP; single-site fit; details: both partners purified
[4] = target: T1, αIIb integrin cytoplasmic tail (Homo sapiens (Human), UniProt P08514, biotin on the in vivo biotinylation peptide tag); assay: pull-down (NeutrAvidin bead-immobilised tail peptide, Coomassie-stained SDS-PAGE)
T1 chain: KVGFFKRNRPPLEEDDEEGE

B1
Kd [1]: 770 ± 90 nM
stoichiometry N [2]: 2

B2: recombinant Rasip1 RA domain (residues 134-285) R182E (domain or fragment, human, UniProt Q5U651 134-285, looked up)
chain: EPPLATRATAPPGVLKIFGAGLASGANYKSVLATARSTARELVAEALEEYGLAGSPGGGPGESSCVDAFALCDALGRPAAAGVGSGEWRAEHLRVLGDSERPLLVQELWRARPGWARRFELRGREEARRLEQEAFGAADSEGTGAPSWRPQK
notes: Rasip1, human, RA domain residues 134-285 with R182E; also called Rasip1(R182E); Rasip1 RA domain (R182E)
binding result [2]: binds

B3
stoichiometry N [3]: 2 Rap1 monomers per Rasip1 dimer

B4: recombinant His-MBP-fusion Rasip1 central domain (residues 266-550) (protein)
chain: EAFGAADSEGTGAPSWRPQKNRSRAASGGAALASPGPGTGSGAPAGSGGKERSENLSLRRSVSELSLQGRRRRQQERRQQALSMAPGAADAQIGTADPGDFDQLTQCLIQAPSNRPYFLLLQGYQDAQDFVVYVMTREQHVFGRGGNSSGRGGSPAPYVDTFLNAPDILPRHCTVRAGPEHPAMVRPSRGAPVTHNGCLLLREAELHPGDLLGLGEHFLFMYKDPRTGGSGPARPPWLPARPGATPPGPGWAFSCRLCGRGLQERGEALAAYLDGREPVLRFRPR
binding result [4]: no binding
